B1: M24E (VHH)
VHH: DVQLQASGGGLVQAGGSLRLSCAASGSTFSIKHHGWYRRAPGNQREWVAGISSENITNVAEAVKGRFTISRDNAKNTVYLQMNSLKVEDTAVYYCYAQDNDYRFLHRFWGQGTQVTVSL
notes: also called bt-M24E; anti-CD20 sdAb M24E
B2: M28C (VHH)
VHH: B1 VHH with S52N, E61G, Y94F
notes: also called bt-M28C; anti-CD20 sdAb M28C
B3: M112D (VHH)
VHH: B1 VHH with G15E, S30G, D101N
notes: also called bt-M112D; anti-CD20 sdAb M112D

Residue numbers refer to the chain shown, from its start. Names and notes keep the numbering of the source.

T1 sequence (P11836 142-187, tags or fused parts left off): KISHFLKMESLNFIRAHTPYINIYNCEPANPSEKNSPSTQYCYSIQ

The first test addresses T1, CD20-Hoc fusion protein (human; T4 phage, UniProt P11836 142-187; P18056 1-376, limits assumed).
T1 construct: also called Hoc-CD20; Hoc-CD
Briefly: SPR.
For B1, the equilibrium dissociation constant (Kd) came out at 5.7 nM, the koff came out at 0.0043 s⁻¹ and the on-rate (kon) was determined as 750000 M⁻¹ s⁻¹.

On to B2, for which binding was put at a Kd of 15 nM, the off-rate (koff) is 0.0045 s⁻¹ and the on-rate (kon) came out at 300000 M⁻¹ s⁻¹.

B3 gave a Kd of 26 nM, a koff of 0.007 s⁻¹ and a kon of 280000 M⁻¹ s⁻¹.

In a further test the target is T2, Hoc (T4 phage, UniProt P18056 1-376, limits assumed).
T2 construct: Purified Hoc used as control for the fusion partner; also called outer capsid protein Hoc of T4 phage
T2 sequence (P18056 whole entry, the tested form may be a part): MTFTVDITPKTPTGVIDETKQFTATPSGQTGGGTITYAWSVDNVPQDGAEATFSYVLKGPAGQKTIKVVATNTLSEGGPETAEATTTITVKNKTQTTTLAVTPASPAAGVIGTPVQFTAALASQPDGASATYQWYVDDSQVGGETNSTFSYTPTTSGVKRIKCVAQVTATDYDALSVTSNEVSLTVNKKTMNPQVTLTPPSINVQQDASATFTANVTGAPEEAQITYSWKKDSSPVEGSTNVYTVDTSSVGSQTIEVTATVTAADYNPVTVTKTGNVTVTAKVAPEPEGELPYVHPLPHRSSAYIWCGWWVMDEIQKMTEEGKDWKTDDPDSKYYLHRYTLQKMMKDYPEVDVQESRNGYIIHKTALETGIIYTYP
Briefly: SPR.
For the molecule B1, binding was put at a Kd of 230 nM, the off-rate constant (koff) turned out to be 0.046 s⁻¹ and the kon was 200000 M⁻¹ s⁻¹.

As for B2, the affinity, expressed as Kd, was 5300 nM; the dissociation rate constant (koff) is 0.36 s⁻¹; the kon is 68000 M⁻¹ s⁻¹.

B3 yielded a Kd of 2100 nM, a koff of 0.32 s⁻¹ and a kon of 150000 M⁻¹ s⁻¹.

In a further test the target is T1, CD20-Hoc fusion protein. Briefly: SPR binding kinetics.
Take B1: the “differential binding to CD20-Hoc fusion against Hoc” value (“differential binding” for short) was ~1000 fold.

For the molecule B2, the “differential binding” value was ~1000 fold.

Take B3: the “differential binding” value was ~100 fold.

The target in a further test is T1, CD20-Hoc fusion protein. Briefly: SPR; KD on Hoc divided by KD on Hoc-CD20.
As to B1, the “Ratio Hoc KD/Hoc-CD20 KD” value was determined as 40 ratio.

Turning to B2, the “Ratio Hoc KD/Hoc-CD20 KD” value came to 353 ratio.

With B3, the “Ratio Hoc KD/Hoc-CD20 KD” value was 81 ratio.

The record behind these values is patent US20180079822A1 (UNITED STATES OF AMERICA AS REPRESENTED BY THE SECRETARY OF …, published 2018).
